From patent US8840891 (RSR, dated 2014)
Read-outs that look alike come from different tables or passages of the source.

How the values were obtained:
Assay in all cases: cell-based or functional assay
[1] = target: TSHR with Thr104 mutated to Alanine (human) (UniProt P16473)
[2] = target: wild type human TSHR (human) (UniProt P16473)
[3] = target: TSHR with Asp160 mutated to Lysine (human) (UniProt P16473)
[4] = target: wild type human TSHR (human) (UniProt P16473); remark: listed apart in the source
[5] = target: TSHR with Phe134 mutated to Alanine (human) (UniProt P16473)

5C9 IgG (antibody), sequence (VH): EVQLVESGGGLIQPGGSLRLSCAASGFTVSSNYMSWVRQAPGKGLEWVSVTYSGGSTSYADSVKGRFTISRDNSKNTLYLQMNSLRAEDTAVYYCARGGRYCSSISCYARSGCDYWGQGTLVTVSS
5C9 IgG (antibody), sequence (VL): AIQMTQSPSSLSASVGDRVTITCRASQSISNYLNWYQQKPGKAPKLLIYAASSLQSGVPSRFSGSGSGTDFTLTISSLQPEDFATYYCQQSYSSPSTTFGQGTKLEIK

5C9 IgG (antibody) showed a Mutated/wild type (%); 5C9 0.01 µg/mL + TSH [1] of 95%, a Mutated/wild type (%); 5C9 0.1 µg/mL + TSH [1] of 134% and a Mutated/wild type (%); 5C9 1.0 µg/mL + TSH [1] of 168%. For the same substance, the Mutated/wild type (%); 5C9 10 µg/mL + TSH [1] was 172%, the Mutated/wild type (%); 5C9 100 µg/mL + TSH [1] was 140% and the Mutated/wild type (%); 5C9 100 µg/mL only [1] was 135%. The cyclic AMP; 5C9 0.01 µg/mL + TSH (fmol/cell well) [1] was 11700, the cyclic AMP; 5C9 0.1 µg/mL + TSH (fmol/cell well) [1] was 9510 and the cyclic AMP; 5C9 1.0 µg/mL + TSH (fmol/cell well) [1] was 6200. It also gave a cyclic AMP; 5C9 10 µg/mL + TSH (fmol/cell well) [1] of 3090, a cyclic AMP; 5C9 100 µg/mL + TSH (fmol/cell well) [1] of 3110 and a cyclic AMP; 5C9 100 µg/mL only (fmol/cell well) [1] of 264. For the same substance, the cyclic AMP; 5C9 0.01 µg/mL + TSH (fmol/cell well) [2] was 12300, the cyclic AMP; 5C9 1.0 µg/mL + TSH (fmol/cell well) [2] was 3700 and the cyclic AMP; 5C9 10 µg/mL + TSH (fmol/cell well) [2] was 1800. For the same substance, the cyclic AMP; 5C9 100 µg/mL + TSH (fmol/cell well) [2] was 2220, the cyclic AMP; 5C9 100 µg/mL only (fmol/cell well) [2] was 195 and the Mutated/wild type (%); 5C9 0.01 µg/mL + M22 [3] was 91%. It also gave a Mutated/wild type (%); 5C9 0.1 µg/mL + M22 [3] of 82%, a Mutated/wild type (%); 5C9 1.0 µg/mL + M22 [3] of 117% and a Mutated/wild type (%); 5C9 10 µg/mL + M22 [3] of 309%. It also gave a Mutated/wild type (%); 5C9 100 µg/mL + M22 [3] of 218%, a Mutated/wild type (%); 5C9 100 µg/mL only [3] of 107% and a cyclic AMP; 5C9 0.01 µg/mL + M22 (fmol/cell well) [3] of 15200. It also gave a cyclic AMP; 5C9 0.1 µg/mL + M22 (fmol/cell well) [3] of 7700, a cyclic AMP; 5C9 1.0 µg/mL + M22 (fmol/cell well) [3] of 963 and a cyclic AMP; 5C9 10 µg/mL + M22 (fmol/cell well) [3] of 642. For the same substance, the cyclic AMP; 5C9 100 µg/mL + M22 (fmol/cell well) [3] was 657, the cyclic AMP; 5C9 100 µg/mL only (fmol/cell well) [3] was 458 and the cyclic AMP; 5C9 0.01 µg/mL + M22 (fmol/cell well) [4] was 16700. For the same substance, the cyclic AMP; 5C9 0.1 µg/mL + M22 (fmol/cell well) [4] was 9380, the cyclic AMP; 5C9 1.0 µg/mL + M22 (fmol/cell well) [4] was 821 and the cyclic AMP; 5C9 10 µg/mL + M22 (fmol/cell well) [4] was 208. It also gave a cyclic AMP; 5C9 100 µg/mL + M22 (fmol/cell well) [4] of 301, a cyclic AMP; 5C9 100 µg/mL only (fmol/cell well) [4] of 429 and a Mutated/wild type (%); 5C9 0.01 µg/mL + TSH [5] of 117%. For the same substance, the Mutated/wild type (%); 5C9 0.1 µg/mL + TSH [5] was 73%, the Mutated/wild type (%); 5C9 1.0 µg/mL + TSH [5] was 43% and the Mutated/wild type (%); 5C9 10 µg/mL + TSH [5] was 44%. It also gave a Mutated/wild type (%); 5C9 100 µg/mL + TSH [5] of 77%, a Mutated/wild type (%); 5C9 100 µg/mL only [5] of 159% and a cyclic AMP; 5C9 0.01 µg/mL + TSH (fmol/cell well) [5] of 15900. It also gave a cyclic AMP; 5C9 0.1 µg/mL + TSH (fmol/cell well) [5] of 6370, a cyclic AMP; 5C9 1.0 µg/mL + TSH (fmol/cell well) [5] of 1940 and a cyclic AMP; 5C9 10 µg/mL + TSH (fmol/cell well) [5] of 1060. The cyclic AMP; 5C9 100 µg/mL + TSH (fmol/cell well) [5] was 1070 and the cyclic AMP; 5C9 100 µg/mL only (fmol/cell well) [5] was 337.
